# How the values were obtained:
# SmeCOSe = molecular target: T1, SmeCOSe (Sinorhizobium meliloti, UniProt O69787); assay: absorbance at […] nm (p-nitrophenol release); assay type: biochemical; conditions: pH 7.0
# T1 construct: gene betC; full length, C-terminal His6 (pET-21b(+), plasmid pSERQF5), E. coli BL21(DE3); homotetramer, about 201 kDa; Cys54 is formylglycine in wild type; natural difference at residue 105 (printed F105L against strain GR4 CP003933.2, but L105F)
# [1] = molecular target: wild-type Sinorhizobium (Ensifer) meliloti choline-O-sulfatase (Sinorhizobium (Ensifer) meliloti CECT4857) (UniProt O69787); assay: SEC; 100 ul samples of SmeCOSe (0.1-1 mg/ml, three concentrations) on a Tricorn Superdex 200 column, 20 mM Tris-HCl pH 8.0; mass estimated against standards
# [2] = molecular target: wild-type Sinorhizobium (Ensifer) meliloti choline-O-sulfatase (Sinorhizobium (Ensifer) meliloti CECT4857) (UniProt O69787); assay: dynamic light scattering; 20 uM (in protomer units), 20 mM Tris-HCl pH 8.0, 20 C; mass from the hydrodynamic radius assuming a spherical shape
compound,measurement,setting,value
O=[N+]([O-])c1ccc(OS(=O)(=O)O)cc1 [pNPS],Km,SmeCOSe,45.7 ± 12.5 mM
wild-type Sinorhizobium (Ensifer) meliloti choline-O-sulfatase (from UniProt O69787 2-512) (enzyme),stoichiometry N,[1],4
same,stoichiometry N,[2],4

# From paper PMC9063841, “Structural insights into choline-O-sulfatase reveal the molecular determinants for ligand binding” (Acta Crystallographica. Section D, Structural Biology, 2022)
